# Measurements as given in PMC11417369, “DNA sequence and chromatin differentiate sequence-specific transcription factor binding in the human malaria parasite Plasmodium falciparum”.
# T1: HDP1 homeodomain-like (Plasmodium falciparum, UniProt Q8IKH4 2990-3078)
# T1 sequence: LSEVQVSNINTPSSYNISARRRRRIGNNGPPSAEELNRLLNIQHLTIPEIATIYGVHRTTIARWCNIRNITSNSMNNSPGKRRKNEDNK
# Target: T1, HDP1 homeodomain-like
# Test: gcPBM; about 25 ug protein; PBS, 1% milk, 0.2 mg/ml BSA, salmon testes DNA, 0.03% Triton X-100
# Conditions: tags: N-terminal GST (pGEX-4T-1), kept; chain copies: 2; label: surface-attached array probe
binder,measurement,value
GTGCAC_site10104 (dsDNA) DNA 1: CTTATAAGAATACTAGTGCACATAATTTAACGAAAA DNA 2: TTTTCGTTAAATTATGTGCACTAGTATTCTTATAAG,binding signal,"10 ln median PBM intensity, better of two orientations"
GTGCAC_site9886 (dsDNA) DNA 1: ATTTATTTATATTTAGTGCAATACTATTTTTAAATA DNA 2: TATTTAAAAATAGTATTGCACTAAATATAAATAAAT,binding signal,"9.95 ln median PBM intensity, better of two orientations"
GTGCAC_site10425 (dsDNA) DNA 1: CATGAGGTATAAAAGGTGCAAATTAATGAGAACATT DNA 2: AATGTTCTCATTAATTTGCACCTTTTATACCTCATG,binding signal,"9.91 ln median PBM intensity, better of two orientations"
GTGCAC_site10546 (dsDNA) DNA 1: ATGAAATATTTATTTGTGCACTTAATTTGTTGGAAA DNA 2: TTTCCAACAAATTAAGTGCACAAATAAATATTTCAT,binding signal,"9.86 ln median PBM intensity, better of two orientations"
GTGCAC_site9631 (dsDNA) DNA 1: AAAAATAATCATTAGGTGCAAAAAATATATATATAT DNA 2: ATATATATATATTTTTTGCACCTAATGATTATTTTT,binding signal,"9.83 ln median PBM intensity, better of two orientations"
GTGCAC_site10318 (dsDNA) DNA 1: ATATATATATATATAGTGCAAATATCTTCTTTATAA DNA 2: TTATAAAGAAGATATTTGCACTATATATATATATAT,binding signal,"9.8 ln median PBM intensity, better of two orientations"
GTGCAC_site9948 (dsDNA) DNA 1: CTTAAATTAATTTGGGTGCATATATTTGTACACATT DNA 2: AATGTGTACAAATATATGCACCCAAATTAATTTAAG,binding signal,"9.77 ln median PBM intensity, better of two orientations"
GTGCAC_site9469 (dsDNA) DNA 1: ACAAAAAAAAACGTGGTGCATTAATAATATTGTATA DNA 2: TATACAATATTATTAATGCACCACGTTTTTTTTTGT,binding signal,"9.75 ln median PBM intensity, better of two orientations"
GTGCAC_site9435 (dsDNA) DNA 1: ATATTTTGTTTTATAGTGCACATGGGCATATATTAA DNA 2: TTAATATATGCCCATGTGCACTATAAAACAAAATAT,binding signal,"9.71 ln median PBM intensity, better of two orientations"
GTGCAC_site9646 (dsDNA) DNA 1: TGTATATATATCTCAGTGCATTGCAAATTAAAAATT DNA 2: AATTTTTAATTTGCAATGCACTGAGATATATATACA,binding signal,"9.68 ln median PBM intensity, better of two orientations"
GTGCAC_site9492 (dsDNA) DNA 1: GTCAACAAGAATTAAGTGCATAATTTTTTATTAAAT DNA 2: ATTTAATAAAAAATTATGCACTTAATTCTTGTTGAC,binding signal,"9.67 ln median PBM intensity, better of two orientations"
GTGCAC_site10319 (dsDNA) DNA 1: TCATTTTAAATATGTGTGCACGTTATAATTTACACA DNA 2: TGTGTAAATTATAACGTGCACACATATTTAAAATGA,binding signal,"9.66 ln median PBM intensity, better of two orientations"
GTGCAC_site10676 (dsDNA) DNA 1: TTTTGTTATTTTTTAGTGCATATAAAGGTTGTTAAG DNA 2: CTTAACAACCTTTATATGCACTAAAAAATAACAAAA,binding signal,"9.65 ln median PBM intensity, better of two orientations"
GTGCAC_site10231 (dsDNA) DNA 1: TTCCAAGAAATAATAGTGCATTATTCATTTTAATAA DNA 2: TTATTAAAATGAATAATGCACTATTATTTCTTGGAA,binding signal,"9.61 ln median PBM intensity, better of two orientations"
GTGCAC_site9397 (dsDNA) DNA 1: TGTGTTAGCAAAAAAGTGCACAGGGAAAAAAAAATA DNA 2: TATTTTTTTTTCCCTGTGCACTTTTTTGCTAACACA,binding signal,"9.59 ln median PBM intensity, better of two orientations"
GTGCAC_site10156 (dsDNA) DNA 1: ACCATATAAAGTTAGGTGCATTTGTATGTATCTTAC DNA 2: GTAAGATACATACAAATGCACCTAACTTTATATGGT,binding signal,"9.55 ln median PBM intensity, better of two orientations"
GTGCAC_site9715 (dsDNA) DNA 1: TTTTTTAAATTGGTAGTGCAATATGATTGAACAAAA DNA 2: TTTTGTTCAATCATATTGCACTACCAATTTAAAAAA,binding signal,"9.52 ln median PBM intensity, better of two orientations"
GTGCAC_site9634 (dsDNA) DNA 1: AAATTGAGACAACAGGTGCATATAAATATACAGTGT DNA 2: ACACTGTATATTTATATGCACCTGTTGTCTCAATTT,binding signal,"9.49 ln median PBM intensity, better of two orientations"
